From patent US20240325490A1 (RESEARCH AND BUSINESS FOUNDATION SUNGKYUNKWAN UNIVERSITY, published 2024)
Each block holds one binder with its values, some of them ahead of it.

How the values were obtained:
[1] = biological target: T1, P62 (endogenous, mouse brain) (mouse, UniProt Q64337 2-442, limits assumed); assay: protein ligation assay (PLA) in situ, mouse brain CA1 after MCAO
T1 construct: Endogenous protein in mouse brain tissue

[2] = biological target: T1, P62 (endogenous, mouse brain); assay: immunoprecipitation / immunoblot from AAV2-injected mouse brains after MCAO (FIGS. 6F and 6G)

binding result [1]: binds
B1: EBP1 (endogenous, mouse brain) (other, UniProt P50580 2-394, looked up)
chain: SGEDEQQEQTIAEDLVVTKYKMGGDIANRVLRSLVEASSSGVSVLSLCEKGDAMIMEETGKIFKKEKEMKKGIAFPTSISVNNCVCHFSPLKSDQDYILKEGDLVKIDLGVHVDGFIANVAHTFVIGVAQGTQVTGRKADVIKAAHLCAEAALRLVKPGNQNTQVTEAWNKVAHSFNCTPIEGMLSHQLKQHVIDGEKTIIQNPTDQQKKDHEKAEFEVHEVYAVDVLVSSGEGKAKDAGQRTTIYKRDPSKQYGLKMKTSRAFFSEVERRFDAMPFTLRAFEDEKKARMGVVECAKHELLQPFNVLYEKEGEFVAQFKFTVLLMPNGPMRITSGPFEPDLYKSEMEVQDAELKALLQSSASRKTQKKKKKKASKTVENATSGETLEENGAGD
notes: Endogenous protein detected in situ by PLA; also called mouse Ebp1

binding result [2]: no binding
B2: GFP-EBP1-K376A expressed from AAV2 in mouse brain (other, UniProt Q9UQ80 1-394, looked up)
chain: MSGEDEQQEQTIAEDLVVTKYKMGGDIANRVLRSLVEASSSGVSVLSLCEKGDAMIMEETGKIFKKEKEMKKGIAFPTSISVNNCVCHFSPLKSDQDYILKEGDLVKIDLGVHVDGFIANVAHTFVVDVAQGTQVTGRKADVIKAAHLCAEAALRLVKPGNQNTQVTEAWNKVAHSFNCTPIEGMLSHQLKQHVIDGEKTIIQNPTDQQKKDHEKAEFEVHEVYAVDVLVSSGEGKAKDAGQRTTIYKRDPSKQYGLKMKTSRAFFSEVERRFDAMPFTLRAFEDEKKARMGVVECAKHELLQPFNVLYEKEGEFVAQFKFTVLLMPNGPMRITSGPFEPDLYKSEMEVQDAELKALLQSSASRKTQKKKKKKASATAENATSGETLEENEAGD
notes: also called AAV2-GFP-EBP1-K376A; AAV2-K376A; not shown: GFP tag
